For 72 sequences, protein stability index results are on record in the supplement of paper PMC10567573.

The nature of the data set: protein stability index of a GFP-peptide fusion (GPS, HEK-293T) (PSI 1-6); higher = more stable.
[1] abbreviates: treatment: DMSO, c terminus: a fixed tail appended.
[2] abbreviates: treatment: MLN4924 1 uM, 8 h, c terminus: a fixed tail appended.
The mark [3] stands for this setting: treatment: DMSO, c terminus: native.
Setting [4] is: treatment: MLN4924 1 uM, 8 h, c terminus: native.

± gives the standard deviation.
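Further: 24-mer peptide tiles fused after GFP, lentivirally expressed, FACS-sorted into six equal bins by GFP/DsRed ratio, decoded by Illumina sequencing, PSI is the read-weighted mean bin number.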

As for PPETKHQALSGTPKKGPAPSLSPG [TSPAN10], the protein stability index by setting is: under setting [1], 5.31 ± 0.31; under setting [2], 5.31 ± 0.13.
The like results for PPWKEAFRQRCLERMRNSRDRLLN [RPAIN] were, in that order, 2.66 ± 0.18 and 2.75 ± 0.33.
The like results for PQARMREENMERIGEEVRQLMEKL [BEX1] were, in that order, 4.51 ± 0.33 and 4.52 ± 0.23.
The like results for PQLASLCLDTIDKSTMDAISAEGF [BTBD1] were, in that order, 3.98 ± 0.16 and 3.99 ± 0.057.
For the sequence PSGEMVKSTTSLTSSSTSGSSDKV [MLH1], the protein stability index was 5.47 ± 0.39 under setting [1] and 5.59 ± 0.17 under setting [2].
Consider PSMVSGGYVANSSNCISGVCSVRG [KRT71], for which the protein stability index under setting [1] was determined as 3.35 ± 0.082 and the protein stability index under setting [2] came out at 3.4 ± 0.23.
Consider PSPASEQTVTVEEAAGGESALAPS [MAP2], for which the protein stability index by setting is: under setting [1], 5.45 ± 0.53; under setting [2], 5.5 ± 0.15.
Regarding PSVADNLLASSDAALSASMASLLE [SERTAD1], the protein stability index is, setting by setting: under setting [1], 4.51 ± 0.18; under setting [2], 4.39 ± 0.15.
In the case of PTPMPHNKGTRFSEAWEYFHLAPA [ZBED2], the protein stability index by setting is: under setting [1], 2.65 ± 0.2; under setting [2], 2.71 ± 0.33.
Regarding PTWIIDPIDGTTNFVHRFPFVAVS [IMPA1], the protein stability index is, setting by setting: under setting [1], 2.36 ± 0.22; under setting [2], 2.25 ± 0.25.
As for PVPVIVSNFNYFYHRETEGEEQAQ [KCNA1], the protein stability index by setting is: under setting [1], 3.62 ± 0.25; under setting [2], 3.81 ± 0.4.
For the sequence PVRDECEERNRFTETREEDVTDEH [FAM9B], the protein stability index is, setting by setting: under setting [1], 5.44 ± 0.21; under setting [2], 5.66 ± 0.24.
The corresponding values for PVSDTPDEGDEPMPIPEDLSTTSG [IKZF1] are 5.75 ± 0.25 and 5.66 ± 0.3.
For PWEPPVLPILTWPVLQSRTGLVYD [HDAC6], the protein stability index is, setting by setting: under setting [1], 3.46 ± 0.51; under setting [2], 3.35 ± 0.23.
QAAFTQQGMEGIKVFLHERELWLK [TBX5] came in with a protein stability index under setting [1] of 2.86 ± 0.37 and a protein stability index under setting [2] of 2.92 ± 0.4.
QAINNAINYLGAESLRPLVQTPPG [IKZF1]: the protein stability index under setting [1] came to 2.39 ± 0.29 and the protein stability index under setting [2] amounted to 2.25 ± 0.32.
Regarding QARKALFEKWEQETAAGKGKGEAR [SMTNL2], the protein stability index under setting [1] was 4.836 ± 0.03 and the protein stability index under setting [2] came out at 4.84 ± 0.29.
As to QAYAHYLLATFPRRALAPPSAGFR [ANKRD9], the protein stability index is, setting by setting: under setting [1], 2.31 ± 0.22; under setting [2], 2.37 ± 0.23.
With QCKEWQVLMCGFPFLLLFLGNFFT [TMEM120A], the protein stability index runs as follows: under setting [1], 2.81 ± 0.053; under setting [2], 2.92 ± 0.53.
Regarding QCRERREHPNLVRDHVETELLKEA [TEKT4], the protein stability index under setting [1] was determined as 4.77 ± 0.19 and the protein stability index under setting [2] is 4.97 ± 0.23.
For the sequence QDGSPTTSRRPSGTGTGPEDGRPS [PDLIM4], the protein stability index by setting is: under setting [1], 5.37 ± 0.22; under setting [2], 5.66 ± 0.16.
On to QEITSETEDLCEKPDDEVKETAHD [RIPK4], for which the protein stability index is, setting by setting: under setting [1], 5.6 ± 0.17; under setting [2], 5.69 ± 0.21.
The like results for QELASLLRTYLARLPWAGQLTKEL [PBXIP1] were, in that order, 2.95 ± 0.59 and 2.72 ± 0.7.
Regarding QELEEEIKELYENFCKHNGSKNVF [ATL3], the protein stability index reads like this: under setting [1], 3.02 ± 0.32; under setting [2], 3.57 ± 0.48.
In the case of QENAIQTMELRNYFSLYCLHQETQ [SNX8], the protein stability index under setting [1] stood at 2.58 ± 0.31 and the protein stability index under setting [2] was 2.52 ± 0.4.
In turn, QGMIQLALSGASQPGPSGAPAQRA [RETREG3] showed a protein stability index under setting [1] of 4.26 ± 0.1 and a protein stability index under setting [2] of 4.32 ± 0.22.
As to QGNGLFYSSGPQSWYPKANNQDFI [ZC2HC1C], the protein stability index amounted to 2.6 ± 0.16 under setting [1] and 2.85 ± 0.051 under setting [2].
With QGQPAMEGHCVIQVDVGDVNDNAP [PCDHGC5], the protein stability index is 4.97 ± 0.5 under setting [1] and 4.78 ± 0.075 under setting [2].
Turning to QHAALGGTATRQNNWPPLPSFCPV [SCAMP3], the protein stability index runs as follows: under setting [1], 3.33 ± 0.28; under setting [2], 3.39 ± 0.37.
For the sequence QHEESTEGEADHSGYAGELGFRAF [UFD1], the protein stability index turned out to be 4.81 ± 0.31 under setting [1] and 4.88 ± 0.31 under setting [2].
Turning to QHYFYDYDCGEDFYRSTAPSEDIW [MYCL], the protein stability index is, setting by setting: under setting [1], 2.63 ± 0.49; under setting [2], 2.59 ± 0.33.
QILEGELFDFDLEVKPVLEVLVGK [RSPH3] came in with a protein stability index under setting [1] of 2.13 ± 0.58 and a protein stability index under setting [2] of 2.37 ± 0.67.
Sequence QIMFDVEMHTSRDHSSQSEEEVVE [BNIP3L] came in with a protein stability index under setting [1] of 5.33 ± 0.063 and a protein stability index under setting [2] of 5.37 ± 0.22.
Turning to QKELQDVGQSLRIKEQEVCKLQEQ [SASS6], the protein stability index worked out at 4.88 ± 0.25 under setting [1] and 5.03 ± 0.36 under setting [2].
The corresponding values for QKGIPPSLRGRAWQYLSGGKVKLQ [TBC1D10A] are 2.8 ± 0.13 and 3 ± 0.21.
For the sequence QLFTEYGRLAMDEIFQKPFQTLMF [ATL3], the protein stability index was 2.33 ± 0.49 under setting [1] and 2.35 ± 0.47 under setting [2].
As to QLSATGQKLYVRLFQRKLSWIKMT [FAN1], the protein stability index worked out at 2.3 ± 0.6 under setting [1] and 2.04 ± 0.17 under setting [2].
For QLTCFSITCSSTMSYSCCLPSLGC [KRT34], the protein stability index stood at 3.04 ± 0.58 under setting [1] and 2.65 ± 0.35 under setting [2].
The like results for QLVRYSADGLLQLGPLGSTAFLPD [GALNT9] were, in that order, 2.33 ± 0.27 and 2.67 ± 0.3.
For the sequence QNARLAELERKLREVMESAVGNSS [FBXO28], the protein stability index reads like this: under setting [1], 3.68 ± 0.23; under setting [2], 3.52 ± 0.34.
The like results for QPSFEPTKNKELTDEFRELRATVE [FADS1] were, in that order, 4.98 ± 0.19 and 4.86 ± 0.35.
The like results for QQPPRLLIVHIALPSWADICTNLC [M1AP] were, in that order, 3 ± 0.3 and 2.74 ± 0.51.
With QQQCHEMAERLEDSVLKGMQAASS [SDE2], the protein stability index by setting is: under setting [1], 4.17 ± 0.33; under setting [2], 4.2 ± 0.41.
Sequence QRSYFLRIFDIKDGKLLWEQELYN [WASL] gave a protein stability index under setting [1] of 2.21 ± 0.48 and a protein stability index under setting [2] of 2.08 ± 0.4.
With QRTVGQLMELCRLYHRADVEKVLR [EDARADD], the protein stability index came to 2.38 ± 0.45 under setting [1] and 2 ± 0.22 under setting [2].
On to QVETSIEGTIPFSKPVKVYIMPKP [INTS4], for which the protein stability index was determined as 2.65 ± 0.33 under setting [1] and 2.65 ± 0.42 under setting [2].
For the sequence RAGLDLPTIDTGYDSQPQDVLGIR [TRAF3IP2], the protein stability index came to 4.25 ± 0.37 under setting [1] and 4.29 ± 0.18 under setting [2].
As for RAIPELTKLLNDEDQVVVNKAAVM [CTNNB1], the protein stability index runs as follows: under setting [1], 3.91 ± 0.16; under setting [2], 3.89 ± 0.21.
As for RARGWAAAARAAQRRRRVENAGGS [RSAD1], the protein stability index stood at 4.48 ± 0.19 under setting [1] and 4.77 ± 0.17 under setting [2].
Turning to RAYRFVQGKDWGFKKFIRRDFLLD [SPOPL], the protein stability index under setting [1] amounted to 2.48 ± 1.1 and the protein stability index under setting [2] was determined as 2.28 ± 0.29.
The like results for RCHRGYTLDPNGKTCSRVDHCAQQ [MATN2] were, in that order, 3.68 ± 0.28 and 3.22 ± 0.34.
The corresponding values for RCRPRSLIDYKSYMDTKLLVARFL [FAM189A2] are 2.42 ± 0.11 and 2.3 ± 0.3.
The like results for RDGRRDRYSSDTTPLLNGSSQDRM [GOSR1] were, in that order, 4.76 ± 0.07 and 4.85 ± 0.2.
For the sequence RDLALVSRDGMNIVLNKINQILME [INTS3], the protein stability index turned out to be 2.58 ± 0.28 under setting [1] and 2.69 ± 0.67 under setting [2].
For RDPLQTDTLQNDYFAIKQEVVTPD [ETS1], the protein stability index runs as follows: under setting [1], 4.89 ± 0.42; under setting [2], 4.9 ± 0.47.
REKTNICYLSFPDSNSGCLGDTQF [DENND6A]: the protein stability index reads like this: under setting [1], 2.88 ± 0.063; under setting [2], 2.9 ± 0.25.
As for RETLIIAVLVSASIANLWLWMNQ [FATE1], the protein stability index runs as follows: under setting [3], 2.54 ± 0.14; under setting [4], 2.31 ± 0.21.
Turning to RFHRARWGLEEEDFQPREEAMLYH [P3H4], the protein stability index is, setting by setting: under setting [1], 2.93 ± 0.11; under setting [2], 2.9 ± 0.13.
With RFTTSKLQSFEDLASISTYGFRGE [MLH1], the protein stability index is, setting by setting: under setting [1], 3.24 ± 0.47; under setting [2], 3.12 ± 0.36.
On to RGGGGGGGGGAPRGRYGPPSRRSE [SRSF1], for which the protein stability index was found to be 5.61 ± 0.1 under setting [1] and 5.49 ± 0.071 under setting [2].
For the sequence RGIDSSSVKLRGSSLFMDTEKSGK [WEE1], the protein stability index by setting is: under setting [1], 4.91 ± 0.57; under setting [2], 4.99 ± 0.25.
Sequence RGLRGPNLTSPASITFTTGLEAPR [TNXB] registered a protein stability index under setting [1] of 3.84 ± 0.2 and a protein stability index under setting [2] of 3.92 ± 0.47.
For RGRHEQSPTSRPRKVSSLPPRSC [C22orf15], the protein stability index runs as follows: under setting [3], 3.06 ± 0.81; under setting [4], 3.5 ± 0.85.
For the sequence RGVPLLEWETEVEMDKLRASDIME [CLCN6], the protein stability index turned out to be 4.2 ± 0.043 under setting [1] and 4.3 ± 0.13 under setting [2].
RHEVIMDRHGVYGLQRNLLVENII [TRIM63]: the protein stability index came to 2.42 ± 0.13 under setting [1] and 2.31 ± 0.22 under setting [2].
On to RHGGLSLVQTTDFFYPLVEDPYMM [SEPHS2], for which the protein stability index was found to be 2.3 ± 0.25 under setting [1] and 2.24 ± 0.28 under setting [2].
For the sequence RHKQPTLLMVRASRRSGKTSAVLK [C6orf223], the protein stability index is, setting by setting: under setting [1], 3.29 ± 0.26; under setting [2], 3.45 ± 0.24.
RISHTLYDLDKIIELNGGQPPLTY [CRY1] gave a protein stability index under setting [1] of 2.38 ± 0.041 and a protein stability index under setting [2] of 2.6 ± 0.27.
The like results for RITAAEALKHPWISHRSTVASCMH [CAMK2A] were, in that order, 2.54 ± 0.19 and 2.89 ± 0.19.
As to RKGCLRFQLPERGSRLCLYEDGTE [DFFB], the protein stability index was found to be 3.34 ± 0.39 under setting [1] and 3.47 ± 0.21 under setting [2].
RKLFGQESGPSAEKYSVATQLFIG [FUNDC2]: the protein stability index reads like this: under setting [1], 2.61 ± 0.18; under setting [2], 2.47 ± 0.26.
As to RKLRELQLRNCLRILMGELSNHHD [BEX3], the protein stability index is, setting by setting: under setting [1], 2.38 ± 0.21; under setting [2], 2.28 ± 0.19.
